According to publication PMC10571083, “An Analysis of Nucleotide–Amyloid Interactions Reveals Selective Binding to Codon-Sized RNA”:
No end group written: not given here.

Experiments:
[1] = test system: peptide 7 amyloid (designed); assay: pelleting/HPLC; details: citrate-phosphate buffer, pH 3 (or pH series), room temperature, overnight, 100 uM peptide with 25 or 50 uM oligo, Kd: 50 uM peptide with 5-200 uM oligo …
[2] = test system: peptide 4 amyloid (designed); assay: pelleting/HPLC; details: pH 3, 100 uM peptide, 50 uM RNA; citrate-phosphate buffer, pH 3 (or pH series), room temperature, overnight, 100 uM peptide with 25 or 50 uM oligo; Kd: 50 uM peptide with 5-200 uM oligo …
[3] = target: T1, VAQAQINI-NH2 amyloid (designed); assay: pelleting/HPLC; Bmax 0.147; citrate-phosphate buffer, pH 3 (or pH series), room temperature, overnight, 100 uM peptide with 25 or 50 uM oligo; Kd: 50 uM peptide with 5-200 uM oligo; supern; details: single strand
T1 chain: VAQAQINI-NH2

Molecule: GUG [DNA pGUG]
- Kd ([1]; 5' phosphate, DNA backbone (printed with U)): 117000 nM

Molecule: GUG [pGUG]
- Kd ([1]; 5' phosphate): 82000 nM
- binding signal ([1]; pH 3, 100 uM peptide, 25 uM RNA, peptide 7 or 9 not specified, 5' phosphate): > 40 % bound

Molecule: GUGU [pGUGU]
- Kd ([1]; 5' phosphate): 1290 nM

Molecule: GUGUG [pGUGUG]
- Kd ([1]; 5' phosphate): 74.9 nM

Molecule: GUGUGU [[GU]3]
- Kd [1]: 856 nM

Molecule: GUGUGUG [[GU]3G]
- binding signal [2]: 100 % bound
- Kd [1]: 48.6 nM

Molecule: GUCA (ssRNA, 5' and 3' phosphate) [pGUCAp]
- Kd [3]: 1950 nM
